Literature values, collected in paper PMC5519984.
Read-outs that look alike come from different tables or passages of the source.

Tests used:
Ras (Homo sapiens) [1] = target: Ras (Homo sapiens) (UniProt P01112)
Ras (Homo sapiens) [2] = target: Ras (Homo sapiens) (UniProt P01112); remark: listed apart in the source

HBS3 929-944 (from UniProt Q07889)
Kd (Ras (Homo sapiens) [1]): 158 µM | Kd (Ras (Homo sapiens) [2]): 28 µM
